This is an account of results in patent US20260207732A1.

Assay [1] addresses Mut24 (Influenza A virus A/Brisbane/02/2018 (H1N1)). The assay can be described thus: BLI (Octet) after 7D37C and trypsin; footnote to the marked cell. Background: BLI is a label-free optical method that tracks binding on a fibre tip over time.
In assay [2] the target is Mut17 (Influenza A virus A/Brisbane/02/2018 (H1N1)). Briefly: BLI (Octet), HA-foldon-His on Ni-NTA tips, IgG in solution.
Assay [3] deals with Mut18 (Influenza A virus A/Brisbane/02/2018 (H1N1)). The assay is described as above.
Assay [4] has as its target Mut24 (Influenza A virus A/Brisbane/02/2018 (H1N1)). Described as above.
Assay [5] addresses Mut10 (Influenza A virus A/Brisbane/02/2018 (H1N1)). Described as above.
Assay [6] has as its target Mut27 (Influenza A virus A/Brisbane/02/2018 (H1N1)). Described as above.
Assay [7] has as its target Mut23 (Influenza A virus A/Brisbane/02/2018 (H1N1)). The assay is described as above.
Assay [8] addresses Mut17 (Influenza A virus A/Brisbane/02/2018 (H1N1)). Briefly: BLI (Octet) after 7D37C and trypsin; HA on Ni-NTA tips.
Assay [9] has as its target Mut18 (Influenza A virus A/Brisbane/02/2018 (H1N1)). The assay is described as above.
Assay [10] has as its target Mut24 (Influenza A virus A/Brisbane/02/2018 (H1N1)). The description is as above.
For assay [11], the target named is Mut10 (Influenza A virus A/Brisbane/02/2018 (H1N1)). The description is as above.
The target in assay [12] is Mut27 (Influenza A virus A/Brisbane/02/2018 (H1N1)). Described as above.
In assay [13] the target is Mut23 (Influenza A virus A/Brisbane/02/2018 (H1N1)). Described as above.

As for CR9114 monoclonal antibody (IgG), the fold reduction of affinity (KD) against control in [1] is 100 fold. In addition, the Octet response (nm) in [2] is 0.814 nm; in [3], 0.731 nm; in assay [4] it was 0.872 nm; in assay [5], 0.805 nm; in assay [6], 0.337 nm; in assay [7] it was 0.901 nm. The Octet response (nm) in assay [8] was 0.754 nm; in assay [9], 0.464 nm; in assay [10] it was 0.0617 nm; in assay [11], 0.729 nm; in assay [12], 0.314 nm; in assay [13], 0.808 nm.
Consider FI6v3 monoclonal antibody (IgG), for which the Octet response (nm) in [2] amounted to 0.878 nm; in assay [3], 0.811 nm; in assay [4], 0.93 nm; in assay [5] it was 0.968 nm; in assay [6], 0.398 nm; in [7], 0.984 nm. For the same substance, the Octet response (nm) came to 0.748 nm in assay [8]; 0.484 nm in assay [9]; 0.406 nm in [10]; 0.737 nm in assay [11]; 0.313 nm in assay [12]; 0.745 nm in assay [13].
